Broadly, the IC50 is the concentration that inhibits the measured activity by half. Usually Kd stands for the constant that tells how readily two partners part at equilibrium.

Changes are numbered by the printed parent chain.

Experiment [1] has as its target T1, recombinant hIL1RAP Domain1+2+3 (aa21-367) (human, UniProt Q9NPH3 21-367).
T1 construct: Numbering on Uniprot Q9NPH3
T1 sequence (looked up): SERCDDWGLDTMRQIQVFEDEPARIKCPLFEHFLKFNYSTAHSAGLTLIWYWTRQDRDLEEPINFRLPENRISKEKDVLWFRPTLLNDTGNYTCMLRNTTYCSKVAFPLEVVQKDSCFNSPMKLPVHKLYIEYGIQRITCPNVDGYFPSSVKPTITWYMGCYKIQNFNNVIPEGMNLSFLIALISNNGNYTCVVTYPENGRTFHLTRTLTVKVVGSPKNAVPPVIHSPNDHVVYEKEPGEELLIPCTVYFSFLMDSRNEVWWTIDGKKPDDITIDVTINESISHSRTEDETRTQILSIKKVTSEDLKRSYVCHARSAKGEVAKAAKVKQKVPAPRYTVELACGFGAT
The experiment is described as follows: binding ELISA, coated recombinant hIL1RAP aa21-367.

The target in experiment [2] is T2, recombinant mf IL1RAP aa21-367 (cynomolgus monkey (Macaca fascicularis), UniProt A0A2K5X5J5 21-367).
T2 construct: also called cynomolgus monkey IL1RAP; cyno IL1RAP
T2 sequence: T1 sequence (looked up) with L183F, T273P, K326T
The experiment is described as follows: binding ELISA, coated recombinant mf IL1RAP aa21-367. For orientation: In an ELISA, binding on a coated surface is turned into a signal by an enzyme label.

Experiment [3] deals with T3, human IL1RAP on the cell surface (human, UniProt Q9NPH3 21-570).
T3 sequence (looked up): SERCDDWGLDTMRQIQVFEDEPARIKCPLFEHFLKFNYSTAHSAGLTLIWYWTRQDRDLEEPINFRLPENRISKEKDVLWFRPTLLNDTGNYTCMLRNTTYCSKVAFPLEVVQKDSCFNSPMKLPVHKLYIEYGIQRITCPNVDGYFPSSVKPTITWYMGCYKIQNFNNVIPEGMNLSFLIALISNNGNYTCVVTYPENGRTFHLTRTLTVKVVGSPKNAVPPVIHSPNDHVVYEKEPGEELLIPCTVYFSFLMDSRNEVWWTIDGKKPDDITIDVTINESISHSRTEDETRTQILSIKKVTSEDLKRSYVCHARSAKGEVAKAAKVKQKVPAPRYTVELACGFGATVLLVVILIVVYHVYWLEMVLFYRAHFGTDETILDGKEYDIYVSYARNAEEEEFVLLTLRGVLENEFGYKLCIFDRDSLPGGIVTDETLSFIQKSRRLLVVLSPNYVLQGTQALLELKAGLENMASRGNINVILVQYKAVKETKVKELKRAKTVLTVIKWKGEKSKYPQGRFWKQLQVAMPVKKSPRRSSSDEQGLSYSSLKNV
The experiment is described as follows: cell-based or functional assay.

The target of experiment [4] is T1, recombinant hIL1RAP Domain1+2+3 …. In words: bio-layer interferometry, human IL1RAP. How it is done: Affinity measurements were done on BLItz™ Label-Free Protein Analysis System from ForteBio, using the Basic Kinetics module in the BLItz Pro 1.3.1.3 software from Molecular Devices. Protein A biosensors were hydrated in blocking buffer (PBS, 0.5% BSA, 0.05% Tween 20, pH 7.4) for minimum 10 min at room temperature before coating. Protein A biosensors were coated with antibodies by dipping the biosensors in 200 μl of antibody solution (10 μg/ml in blocking buffer) for 30 min at room temperature. The sensors were then incubated in 200 μl blocking buffer for at least 10 min before use. […] The baseline was made in blocking buffer with a duration time of 30 sec. Association was made for 120 sec in hIL1RAP followed by 120 sec dissociation in blocking buffer.
The antibodies were characterized for A) binding (ELISA analysis, human and cynomolgus monkey IL1RAP), B) inhibition of cytokine signaling (HEK-Blue™ assay), C) affinity (Bio-layer interferometry), D) size heterogeneity (SE-HPLC) and E) yield (concentration, A280). […] SE-HPLC was performed using standard procedures and PBS as running buffer. Affinity and cytokine inhibition were measured as previously described in Example 10. All 25 humanized clones were analyzed for blocking activity on IL-1α, IL-1β and IL-33 signaling while only the clones that had retained the inhibitory activity similar to chimeric 48D2 were analyzed for IL-36 inhibition.
KD values for affinity towards human IL1RAP are shown in Table 11 for the humanized 48D2 variants. Affinity was measured using bio-layer interferometry. […] See also Table 4 for a direct comparison of chimeric 48D2, humanized 48D2 variant VH5:VL4, and a humanized and de-immunized 48D2 variant VH5.GL:VL4.
In general terms: BLI is a label-free optical method that tracks binding on a fibre tip over time.

B1: h48D2 VH1:VL5 (antibody, human IgG1, kappa, L234A L235A, V domains shown)
VH: EVQLEESGGGLVKPGGSLRLSCAASGPSLSHFDITWVRQAPGKGLEWVSTISPGVSTYYASWAKSRFTISRDNSKNTLYLQMNSLRAEDTAVYYCARGGVGSSWKAFDLWGRGTLVTVSS
VL: APVLTQSPATLEASVGDRVTITCQASESISTALAWYQQKPGQPPKLLIYKASTLPSGVPSRFSGSGSGTEFTLTISDLESDDAATYYCQQGFSSGNVHNAFGGGTEVVVKR
notes: Humanized; also called VL5:VH1
On to B1, for which the IC50 in experiment [1] was 0.0234 mg/L. Further, the IC50 in experiment [2] stood at 0.0242 mg/L. In addition, in experiment [3], the “IC50 of IL-1α signaling (HEK-Blue assay)” value came out at 0.528 µM, the “IC50 of IL-1β signaling (HEK-Blue assay)” value is 0.0202 µM and the “IC50 of IL-33 signaling (HEK-Blue assay)” value was determined as 0.0747 µM. The Kd in experiment [4] amounted to 0.0316 µM.

B2: h48D2 VH3:VL3 (antibody, human IgG1, kappa, L234A L235A, V domains shown)
VH: B1 VH with E5L, K13L, N83S, R112L, L115T
VL: DILLTQTPSVVSASVGDRVTITCQASESISTALAWYQQKPGQAPRLLIYKASTLPSGVPSRFRGSGSGTDFTLTITSLQPEDFATYYCQQGFSSGNVHNAFGGGTRLEIKR
notes: Humanized; also called VL3:VH3
For B2, the IC50 in experiment [1] came to 0.0281 mg/L; in experiment [2] it was 0.0279 mg/L. The “IC50 of IL-1β signaling (HEK-Blue assay)” value in experiment [3] was 0.0105 µM. Further, the Kd in experiment [4] is 0.0274 µM.

B3: h48D2 VH3:VL2 (antibody, human IgG1, kappa, L234A L235A, V domains shown)
VH: B1 VH with E5L, K13L, N83S, R112L, L115T
VL: QIVLTQSPATLSASVGDRVTITCQASESISTALAWYQQKPGKAPKLLIYKASTLPSGVPSRFSGSGSGTEFTLTISSLQPDDSATYYCQQGFSSGNVHNAFGQGTKLEIKR
notes: Humanized; also called VL2:VH3
With B3, the IC50 in experiment [1] came to 0.0258 mg/L. Further, the IC50 in experiment [2] was 0.0274 mg/L. In experiment [3], the “IC50 of IL-1β signaling (HEK-Blue assay)” value came to 0.00911 µM and the “IC50 of IL-33 signaling (HEK-Blue assay)” value is 0.474 µM. Moreover, the Kd in experiment [4] was determined as 0.0224 µM.

B4: h48D2 VH3:VL5 (antibody, human IgG1, kappa, L234A L235A, V domains shown)
VH: B1 VH with E5L, K13L, N83S, R112L, L115T
VL: B1 VL
notes: Humanized; also called VL5:VH3
As to B4, the IC50 in experiment [1] was found to be 0.0232 mg/L. Moreover, the IC50 in experiment [2] is 0.0279 mg/L. In experiment [3], the “IC50 of IL-1α signaling (HEK-Blue assay)” value amounted to 0.288 µM, the “IC50 of IL-1β signaling (HEK-Blue assay)” value came out at 0.00987 µM and the “IC50 of IL-33 signaling (HEK-Blue assay)” value turned out to be 0.474 µM. Also, the Kd in experiment [4] was determined as 0.0344 µM.

B5: h48D2 VH2:VL5 (antibody, human IgG1, kappa, L234A L235A, V domains shown)
VH: EVQLVESGGALVQPGGSLRLSCIVSGPSLSHFDITWFRQAPGKGLEWVATISPGVSTYYASWAKSRFTISTDTSKNTLFLQMDSLRAEDTAVYYCARGGVGSSWKAFDLWGPGTLVTVSS
VL: B1 VL
notes: Humanized; also called VL5:VH2
For B5, the IC50 in experiment [1] was 0.0249 mg/L. In experiment [2], the IC50 was determined as 0.0279 mg/L. In experiment [3], the “IC50 of IL-1α signaling (HEK-Blue assay)” value was found to be 0.401 µM, the “IC50 of IL-1β signaling (HEK-Blue assay)” value worked out at 0.00577 µM and the “IC50 of IL-33 signaling (HEK-Blue assay)” value was found to be 0.183 µM. Further, the Kd in experiment [4] came to 0.012 µM.

B6: h48D2 VH4:VL3 (antibody, human IgG1, kappa, L234A L235A, V domains shown)
VH: QVQLQESGPGLVKPSETLSLTCTVSGPSLSHFDITWIRQPPGKGLEWIGTISPGVSTYYASWAKSRFTISVDTSKNQFSLKLTSVTAADTATYYCARGGVGSSWKAFDLWGPGTLVTVSS
VL: B2 VL
notes: Humanized; also called VL3:VH4
Turning to B6, the IC50 in experiment [1] came out at 0.0312 mg/L. The IC50 in experiment [2] was 0.0302 mg/L. In experiment [3], the “IC50 of IL-1β signaling (HEK-Blue assay)” value worked out at 0.00297 µM and the “IC50 of IL-33 signaling (HEK-Blue assay)” value was determined as 7.03 µM. In experiment [4], the Kd amounted to 0.0167 µM.

B7: h48D2 VH4:VL4 (antibody, human IgG1, kappa, L234A L235A, V domains shown)
VH: B6 VH
VL: ELVMTQSPSSVSASVGDRVTITCQASESISTALAWYQQKPGKAPKLLIYKASTLPSGVPSRFSGSGSGTDFTLTINSLQPEDFATYYCQQGFSSGNVHNAFGGGTKVEIKR
notes: Humanized; also called VL4:VH4
Take B7: the IC50 in experiment [1] stood at 0.0243 mg/L. Besides, the IC50 in experiment [2] was found to be 0.0251 mg/L. In addition, in experiment [3], the “IC50 of IL-1β signaling (HEK-Blue assay)” value amounted to 0.00467 µM and the “IC50 of IL-33 signaling (HEK-Blue assay)” value turned out to be 0.26 µM. Also, the Kd in experiment [4] was found to be 0.0228 µM.

B8: h48D2 VH2:VL2 (antibody, human IgG1, kappa, L234A L235A, V domains shown)
VH: B5 VH
VL: B3 VL
notes: Humanized; also called VL2:VH2
Consider B8, for which the IC50 came to 0.0261 mg/L in experiment [1] and 0.0292 mg/L in experiment [2]. Also, the “IC50 of IL-1β signaling (HEK-Blue assay)” value in experiment [3] was determined as 0.000882 µM. For the same molecule, the “IC50 of IL-33 signaling (HEK-Blue assay)” value in experiment [3] is 0.0458 µM. For the same molecule, in experiment [4], the Kd was 0.00733 µM.

B9: h48D2 VH4:VL2 (antibody, human IgG1, kappa, L234A L235A, V domains shown)
VH: B6 VH
VL: B3 VL
notes: Humanized; also called VL2:VH4
Turning to B9, the IC50 stood at 0.0322 mg/L in experiment [1] and 0.0291 mg/L in experiment [2]. Also, the “IC50 of IL-1β signaling (HEK-Blue assay)” value in experiment [3] stood at 0.00555 µM. Besides, in experiment [4], the Kd was 0.0132 µM.

B10: h48D2 VH2:VL3 (antibody, human IgG1, kappa, L234A L235A, V domains shown)
VH: B5 VH
VL: B2 VL
notes: Humanized; also called VL3:VH2
Consider B10, for which the results for the IC50 in experiment [1] and in experiment [2] were 0.0273 mg/L and 0.0314 mg/L, respectively. In addition, the “IC50 of IL-1β signaling (HEK-Blue assay)” value in experiment [3] was found to be 0.00366 µM. Moreover, the “IC50 of IL-33 signaling (HEK-Blue assay)” value in experiment [3] amounted to 1.95 µM. Further, the Kd in experiment [4] stood at 0.0121 µM.

B11: h48D2 VH4:VL1 (antibody, human IgG1, kappa, L234A L235A, V domains shown)
VH: B6 VH
VL: B7 VL with E1D, L2I, V11L, N76S, E108V
notes: Humanized; also called VL1:VH4
Consider B11, for which the IC50 in experiment [1] was found to be 0.0308 mg/L; in experiment [2] it was 0.0316 mg/L. Moreover, the “IC50 of IL-1β signaling (HEK-Blue assay)” value in experiment [3] is 0.00295 µM. Moreover, the Kd in experiment [4] came to 0.0197 µM.

B12: h48D2 VH2:VL4 (antibody, human IgG1, kappa, L234A L235A, V domains shown)
VH: B5 VH
VL: B7 VL
notes: Humanized; also called VL4:VH2
For the molecule B12, the IC50 in experiment [1] amounted to 0.0262 mg/L. The IC50 in experiment [2] was 0.0312 mg/L. Moreover, in experiment [3], the “IC50 of IL-1α signaling (HEK-Blue assay)” value is roughly 4130 µM, the “IC50 of IL-1β signaling (HEK-Blue assay)” value stood at 0.00136 µM and the “IC50 of IL-33 signaling (HEK-Blue assay)” value turned out to be 0.0864 µM. Besides, the Kd in experiment [4] turned out to be 0.0112 µM.
